# T1: Chimeric protein #3 (mPro-mCat-hC-term-mmh) (mouse; human)
# T1 chain: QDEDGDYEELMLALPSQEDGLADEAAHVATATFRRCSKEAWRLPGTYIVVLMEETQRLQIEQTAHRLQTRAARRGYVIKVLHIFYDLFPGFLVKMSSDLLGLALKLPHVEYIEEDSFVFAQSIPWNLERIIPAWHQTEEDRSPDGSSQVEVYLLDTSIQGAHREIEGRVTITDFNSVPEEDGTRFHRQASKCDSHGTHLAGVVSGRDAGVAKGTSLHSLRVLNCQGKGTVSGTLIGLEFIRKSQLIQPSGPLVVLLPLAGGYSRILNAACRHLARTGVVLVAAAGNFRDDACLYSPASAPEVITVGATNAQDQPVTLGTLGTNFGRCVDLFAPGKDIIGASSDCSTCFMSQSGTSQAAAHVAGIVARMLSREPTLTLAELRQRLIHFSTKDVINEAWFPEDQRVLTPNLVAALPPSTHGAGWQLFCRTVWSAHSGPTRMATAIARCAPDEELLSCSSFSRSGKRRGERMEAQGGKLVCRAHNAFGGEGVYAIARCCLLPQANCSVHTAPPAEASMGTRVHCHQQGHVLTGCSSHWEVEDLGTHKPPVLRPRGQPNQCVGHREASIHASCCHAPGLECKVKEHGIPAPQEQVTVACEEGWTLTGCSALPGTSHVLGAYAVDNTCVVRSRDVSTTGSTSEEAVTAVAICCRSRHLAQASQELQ
# Tests used:
# [1] = molecular target: hPCSK9(R215E), mmh-tagged (human, UniProt Q8NBP7 31-692); assay: SPR, mAb captured, 25C
# [2] = molecular target: T1, Chimeric protein #3 …; assay: ELISA, mAb coated, 1.2 nM protein
# Source text: After 1 hr binding at RT, the plate was washed and bound test protein detected using HRP-conjugated anti-myc polyclonal antibody (++=OD>1.0; +=OD 0.4-1.0; −=OD<0.4).
Binder,T1/2 [1],OD [2]
"H1M300N, fully human version (antibody, V domains shown, Fully human mAb made in CHO cells) VH: EMQLVESGGGLVQPGGSLRLSCAASGFTFSSHWMKWVRQAPGKGLEWVANINQDGSEKYYVDSVKGRFTISRDNAKNSLFLQMNSLRAEDTAVYYCARDIVLMVYDMDYYYYGMDVWGQGTTVTVSS VL: not shown",1.28 h,
"H1M300 (antibody, V domains shown, Hybridoma-derived chimeric antibody (human variable, mouse constant)) VH: EMQLVESGGGLVQPGGSLRLSCAASGFTFSSHWMKWVRQAPGKGLEWVANINQDGSEKYYVDSVKGRFTISRDNAKNSLFLQMNSLRAEDTAVYYCARDIVLMVYDMDYYYYGMDVWGQGTTVTVSS VL: not shown",,< 0.4 od

# From patent publication US12269897
